From US20110318308A1, “LIPOCALIN-TYPE PROSTAGLANDIN D2 SYNTHASE AS A BIOMARKER FOR LUNG CANCER PROGRESSION AND PROGNOSIS” (WINTHROP-UNIVERSITY HOSPITAL, priority 2010, published 2011)
Entries after “also recorded” stand apart in the source; their conditions may differ.

Tests used:
A549 cells [1] = conditions: cited from earlier work
A549 cells [2] = experiment: MTS cell proliferation assay, A549 cells with exogenously added L-PGDS; format: cell-based, human; conditions: for A549 hyperproliferation: exogenously added L-PGDS, qualitative statement
Procedure: (§1) The effect of exogenously added L-PGDS on lung cell growth in culture was determined by MTS proliferation assay (Promega, Madison, Wis.). […] MLE cell proliferation was unaffected at L-PGDS concentrations up to […] but ceased at a concentration of 25 mg/l and above, as shown in FIG. 6.
(§2) Cell proliferation was measured with the use of a CellTiter 96 AQeous Non-Radioactive Cell Proliferation Assay (Promega, Madison, Wis.). Briefly, cells were plated in 96-well plates at a density of 500 cells/well in 200 μl of medium with 5% FBS. The cells were incubated at 37° C. in a humidified 5% CO2 atmosphere for the indicated time, after which 20 μl of combined MTS/PMS solution (Promega) was added per well. After a 2 h incubation at 37° C., absorbance at 490 nm was measured using an enzyme-linked immunosorbent assay (ELISA) plate reader. Data represent the average absorbance of three experiments each performed in triplicate.
The effect of exogenously added L-PGDS on A549 proliferation was observed.

[3] = tested on: mouse lung epithelial (MLE) cells; experiment: MTS cell proliferation assay, control mouse lung epithelial (MLE) cells; format: cell-based; conditions: 18 h incubation
Procedure: as §1, §2

A549 cells [4] = experiment: PDGF-stimulated trans-well migration assay, A549 cells; format: cell-based, human; conditions: for decrease in PGDF stimulated A549 migration: 5 h, trans-well inserts; for PDGF-stimulated migration of A549 cells: exogenously added L-PGDS, qualitative statement
Procedure: Migration assays were performed using 24-well cell culture inserts with 8.0 μm polyethylene terephthalate cyclopore membranes (Falcon) as detailed in Lundberg M S, Curto K A, Bilato C, Monticone R E, Crow M T. Regulation of vascular smooth muscle migration by mitogen-activated protein kinase and calcium/calmodulin-dependent protein kinase II signaling pathways. J Mol Cell Cardiol 1998; 30:2377-89. The underside of the membrane was coated with 100 μl rat tail collagen type I (50 μg/ml) for 18-20 h, washed and air-dried before each experiment. Cells were trypsinized and re-suspended in RPMI. Then 2×10^4 cells/250 μl were loaded into the cell culture inserts. The inserts were then added to the wells of 24-well plates which were filled with PDGF-BB diluted in RPMI with 0.1% BSA, and where indicated, L-PGDS was also added to this medium below the inserts.
The chambers were then incubated at 37° C. for 5 h to allow for cell migration. Afterwards, cells were completely removed from the upper side of the membrane with a cotton swab and the remaining migrated cells fixed and stained with Diff-Quik® solution (Dade Behring, Newark, Del.). Results are reported as the mean+/−SEM of five different fields, from three experiments, counted at 200× magnification.
The effect of L-PGDS on A549 migration was examined using trans-well inserts. FIG. 7 illustrates a 42% decrease in PGDF stimulated A549 migration in the presence of […] L-PGDS and a 77% decrease in the presence of […] L-PGDS. […] Cells were cultured and loaded into collagen coated […] cell culture inserts in the absence or presence of L-PGDS (25 or 50 μg/ml) as described above. Actual fields at 200× magnification are presented.

[5] = tested on: Lipocalin-type prostaglandin D2 synthase (EC=5.3.99.2); conditions: alanine substitution in human L-PGDS; Zhou et al., FASEB J. 2010; cited from earlier work

Molecule: CCCCC/C=C/C=C1/C(=O)C=C[C@@H]1C/C=C\CCCC(=O)O [15d-PGD2, 15-deoxy-Delta12,14-prostaglandin J2]
- role in PGD2-induced apoptosis in A549 cells (A549 cells [1]; PGD2 metabolites): likely candidate for the principal apoptotic inducer

Molecule: CCCCC[C@H](O)/C=C/[C@H]1C(=O)C[C@H](O)[C@@H]1C/C=C\CCCC(=O)O [PGD2, Prostaglandin D2]
- A549 cell death / apoptosis (A549 cells [1]; A549 cells treated with PGD2): induces A549 cell death through the intrinsic apoptotic pathway
- involvement of DP or CRTH2/DP2 in PGD2-induced A549 cell death (A549 cells [1]; DP and CRTH2/DP2 blocked with BWA868C and ramatroban): does not appear to involve either DP or CRTH2/DP2

B1: L-PGDS: Lipocalin-type prostaglandin D2 synthase protein, exogenously added to cultured cells (protein, UniProt P41222 23-190, looked up)
Prostaglandin-H2 D-isomerase: APEAQVSVQPNFQQDKFLGRWFSAGLASNSSWLREKKAALSMCKSVVAPATDGGLNLTSTFLRKNQCETRTMLLQPAGSLGSYSYRSPHWGSTYSVSVVETDYDQYALLYSQGSKGPGEDFRMATLYSRTQTPRAELKEKFTAFCKAQGFTEDTIVFLPQTDKCMTEQ
- A549 cell proliferation (A549 cells [2]; L-PGDS 1-50 mg/l, 18 h incubation, MTS assay): marked inhibition
- A549 hyper-proliferative growth (OD490nm) (A549 cells [2]; exogenously added L-PGDS 0, 10, 25, 50 μg/ml, proliferation determined after 2 h): dose responsive inhibition
- A549 hyperproliferation (A549 cells [2]): suppresses
- A549 hyperproliferation (A549 cells [2]; listed as LPGDS): suppress
- L-PGDS concentration at which MLE cell proliferation ceased [3]: ≥ 25 mg/L
- L-PGDS concentrations at which MLE cell proliferation was unaffected [3]: up to 10 mg/dl
- decrease in PGDF stimulated A549 migration (A549 cells [4]; 25 μg/μl L-PGDS): 42%
- decrease in PGDF stimulated A549 migration (A549 cells [4]; 50 μg/μl L-PGDS): 77%
- A549 migration inhibition (A549 cells [4]; 100 μg/μl L-PGDS (data not shown)): no further increase in migration inhibition
- PDGF-stimulated migration of A549 cells (A549 cells [4]): suppresses; also recorded: inhibits
- PDGF-stimulated migration of A549 cells (A549 cells [4]; listed as LPGDS): suppress

B2: 149 Y→A: human L-PGDS with residue 149 Y changed to A (protein, UniProt P41222 23-190, looked up, variant Y149A)
Prostaglandin-H2 D-isomerase: APEAQVSVQPNFQQDKFLGRWFSAGLASNSSWLREKKAALSMCKSVVAPATDGGLNLTSTFLRKNQCETRTMLLQPAGSLGSYSYRSPHWGSTYSVSVVETDYDQYALLYSQGSKGPGEDFRMATLASRTQTPRAELKEKFTAFCKAQGFTEDTIVFLPQTDKCMTEQ
- change of enzyme activity by sequence modification [5]: Increases enzyme activity about two-fold

B3: 79 L→A: human L-PGDS with residue 79 L changed to A (protein, UniProt P41222 23-190, looked up, variant L79A)
Prostaglandin-H2 D-isomerase: APEAQVSVQPNFQQDKFLGRWFSAGLASNSSWLREKKAALSMCKSVVAPATDGGLNATSTFLRKNQCETRTMLLQPAGSLGSYSYRSPHWGSTYSVSVVETDYDQYALLYSQGSKGPGEDFRMATLYSRTQTPRAELKEKFTAFCKAQGFTEDTIVFLPQTDKCMTEQ
- change of enzyme activity by sequence modification [5]: Reduces enzyme activity over ten-fold

B4: 131 L→A: human L-PGDS with residue 131 L changed to A (protein, UniProt P41222 23-190, looked up, variant L131A)
Prostaglandin-H2 D-isomerase: APEAQVSVQPNFQQDKFLGRWFSAGLASNSSWLREKKAALSMCKSVVAPATDGGLNLTSTFLRKNQCETRTMLLQPAGSLGSYSYRSPHWGSTYSVSVVETDYDQYALAYSQGSKGPGEDFRMATLYSRTQTPRAELKEKFTAFCKAQGFTEDTIVFLPQTDKCMTEQ
- change of enzyme activity by sequence modification [5]: Reduces enzyme activity almost ten-fold

B5: 59 K→A: human L-PGDS with residue 59 K changed to A (protein, UniProt P41222 23-190, looked up, variant K59A)
Prostaglandin-H2 D-isomerase: APEAQVSVQPNFQQDKFLGRWFSAGLASNSSWLREKAAALSMCKSVVAPATDGGLNLTSTFLRKNQCETRTMLLQPAGSLGSYSYRSPHWGSTYSVSVVETDYDQYALLYSQGSKGPGEDFRMATLYSRTQTPRAELKEKFTAFCKAQGFTEDTIVFLPQTDKCMTEQ
- change of enzyme activity by sequence modification [5]: Increases enzyme activity about two-fold

B6: 83 F→A: human L-PGDS with residue 83 F changed to A (protein, UniProt P41222 23-190, looked up, variant F83A)
Prostaglandin-H2 D-isomerase: APEAQVSVQPNFQQDKFLGRWFSAGLASNSSWLREKKAALSMCKSVVAPATDGGLNLTSTALRKNQCETRTMLLQPAGSLGSYSYRSPHWGSTYSVSVVETDYDQYALLYSQGSKGPGEDFRMATLYSRTQTPRAELKEKFTAFCKAQGFTEDTIVFLPQTDKCMTEQ
- change of enzyme activity by sequence modification [5]: Reduces enzyme activity about five-fold

B7: 64 M→A: human L-PGDS with residue 64 M changed to A (protein, UniProt P41222 23-190, looked up, variant M64A)
Prostaglandin-H2 D-isomerase: APEAQVSVQPNFQQDKFLGRWFSAGLASNSSWLREKKAALSACKSVVAPATDGGLNLTSTFLRKNQCETRTMLLQPAGSLGSYSYRSPHWGSTYSVSVVETDYDQYALLYSQGSKGPGEDFRMATLYSRTQTPRAELKEKFTAFCKAQGFTEDTIVFLPQTDKCMTEQ
- change of enzyme activity by sequence modification [5]: Reduces enzyme activity almost ten-fold
